This note sets out measurements from publication PMC4923861.

Experiment [1] has as its target CAMSAP3/Marshalin-Ld, V5-His tagged (mouse) (UniProt Q80VC9).
The target in experiment [2] is CKK domain of mouse CAMSAP3/Marshalin-Ld (CKK1 or CKK2, not told for this experiment) (UniProt Q80VC9). Put plainly: GST pull-down. Conditions: n = 4; parent: est. 1.0; read off a plot.
The target of experiment [3] is CKK1, CKK domain construct of mouse CAMSAP3/Marshalin-Ld (residues 1020–1253) (mouse).

Substance “GST-tagged CDH23-C2 (mouse cadherin 23, C isoform, subtype 2) (natural protein)” came in with a decrease of the percent of OK cells with type III (long strings) CAMSAP3/Marshalin-Ld pattern on co-expression of CDH23-C2-GFP, against GFP (54.1% type III), 24 hours after co-transfection in experiment [1] of 20%.
Turning to “GST-CDH23-C_1–67 (first 67 residues of mouse CDH23-C; CKK binding motif, CBM) R55H”, the response (relative intensity) in experiment [2] stood at 0.65.
In turn, “GST-tagged CDH23-C1 (mouse cadherin 23, C isoform, subtype 1) (natural protein)” returned a percent of OK cells with CKK1-induced MT bundles, CKK1 (V5-His) co-expressed with CDH23-C1-GFP, 44 to 68 hours after transfection (19.9% with GFP) in experiment [3] of 5.5%. Also, the decrease of the percent of OK cells with type III (long strings) CAMSAP3/Marshalin-Ld pattern on co-expression of CDH23-C1-GFP, against GFP (54.1% type III), 24 hours after co-transfection in experiment [1] stood at 21.3%.
